This passage reports binding signal results from US20050215503, “HIF oligonucleotide decoy molecules” (published 2005).

This data set addresses HIF-1 (HIF-1alpha/HIF-1beta (ARNT) heterodimer) (Homo sapiens?, UniProt Q16665;P27540 Q16665:1-826,P27540:2-789). Briefly: competition; TransAM. The following applies: protein: extract; tags: none (endogenous, nuclear extract). The protocol:
To assess the relative affinities of oligonucleotides for a HIF-1α containing complex, the HIF-1 TransAM assay (Active Motif, Catalog # 47096) was utilized. The assay was performed according to manufacturer's instructions. Briefly, a double-stranded oligonucletide containing the hypoxia response element (HRE) was immobilized on a 96-well plate. A nuclear extract containing HIF-1α complexes was incubated and allowed to bind to the immobilized oligonucleotide. The unbound material was washed away and the bound HIF-1α detected using an antibody that specificially recognizes HIF-1α. The anti-HIF-1α antibody was detected by a secondary antibody labeled with horseradish peroxidase (HRP), and the amount of HRP in each well was measured using a calorimetric substrate reaction and read using a microplate spectrophotometer.
The ability of candidate decoy molecules to compete for binding of HIF-1α to the HRE element-immobilized on the plate were measured and compared to reveal relative binding affinities. Candidate decoys were added in increasing molar ratios (relative to the amount of oligo immobilized on the plate) to compete for binding to the HIF-1α containing complexes. The amounts of decoys added to the assay included 0.625, 1.25, 2.5, 5, 10 and 20 fold molar excess. A well containing a competing decoy able to bind HIF-1α with high affinity would give a lower absorbance reading as compared to a decoy with low affinity for HIF-1α. All potential decoys were then compared and ranked in order to assess their relative binding affinities.
The screen was conducted using different decoy concentrations. For each UV absorbance reading, normalization was done by calculating the ratio of absorbance readings of sample vs. wild type control. The bigger ratio represents less competition of binding with HIF-1α when compared with wild-type control. The smaller (smaller than 1.0 or close to 1.0) ratios represent better binding or better competition.

HIF-1 (HIF-1alpha/HIF-1beta (ARNT) heterodimer), sequence (Q16665 whole entry, chain 1 of 2): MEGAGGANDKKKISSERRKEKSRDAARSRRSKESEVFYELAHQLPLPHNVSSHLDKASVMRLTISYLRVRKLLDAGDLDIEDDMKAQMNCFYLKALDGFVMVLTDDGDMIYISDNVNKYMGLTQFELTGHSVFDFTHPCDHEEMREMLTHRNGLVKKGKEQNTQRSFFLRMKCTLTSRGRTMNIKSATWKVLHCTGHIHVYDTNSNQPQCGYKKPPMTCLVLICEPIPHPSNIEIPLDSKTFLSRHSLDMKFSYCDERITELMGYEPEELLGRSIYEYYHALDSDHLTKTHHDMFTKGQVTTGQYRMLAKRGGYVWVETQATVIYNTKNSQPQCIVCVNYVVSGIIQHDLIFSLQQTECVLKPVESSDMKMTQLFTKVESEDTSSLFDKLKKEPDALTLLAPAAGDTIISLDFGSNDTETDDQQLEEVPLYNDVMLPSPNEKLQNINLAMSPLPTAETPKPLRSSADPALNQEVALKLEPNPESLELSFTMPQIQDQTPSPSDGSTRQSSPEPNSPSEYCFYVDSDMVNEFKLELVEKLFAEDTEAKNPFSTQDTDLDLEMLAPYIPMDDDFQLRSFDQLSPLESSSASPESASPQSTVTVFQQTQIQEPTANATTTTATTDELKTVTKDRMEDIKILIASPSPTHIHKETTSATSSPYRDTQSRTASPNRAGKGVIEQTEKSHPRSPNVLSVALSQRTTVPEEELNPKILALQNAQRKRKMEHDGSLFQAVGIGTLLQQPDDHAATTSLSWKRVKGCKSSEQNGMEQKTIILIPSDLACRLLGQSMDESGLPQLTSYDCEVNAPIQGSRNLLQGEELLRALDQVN
HIF-1 (HIF-1alpha/HIF-1beta (ARNT) heterodimer), sequence (P27540 2-789, chain 2 of 2): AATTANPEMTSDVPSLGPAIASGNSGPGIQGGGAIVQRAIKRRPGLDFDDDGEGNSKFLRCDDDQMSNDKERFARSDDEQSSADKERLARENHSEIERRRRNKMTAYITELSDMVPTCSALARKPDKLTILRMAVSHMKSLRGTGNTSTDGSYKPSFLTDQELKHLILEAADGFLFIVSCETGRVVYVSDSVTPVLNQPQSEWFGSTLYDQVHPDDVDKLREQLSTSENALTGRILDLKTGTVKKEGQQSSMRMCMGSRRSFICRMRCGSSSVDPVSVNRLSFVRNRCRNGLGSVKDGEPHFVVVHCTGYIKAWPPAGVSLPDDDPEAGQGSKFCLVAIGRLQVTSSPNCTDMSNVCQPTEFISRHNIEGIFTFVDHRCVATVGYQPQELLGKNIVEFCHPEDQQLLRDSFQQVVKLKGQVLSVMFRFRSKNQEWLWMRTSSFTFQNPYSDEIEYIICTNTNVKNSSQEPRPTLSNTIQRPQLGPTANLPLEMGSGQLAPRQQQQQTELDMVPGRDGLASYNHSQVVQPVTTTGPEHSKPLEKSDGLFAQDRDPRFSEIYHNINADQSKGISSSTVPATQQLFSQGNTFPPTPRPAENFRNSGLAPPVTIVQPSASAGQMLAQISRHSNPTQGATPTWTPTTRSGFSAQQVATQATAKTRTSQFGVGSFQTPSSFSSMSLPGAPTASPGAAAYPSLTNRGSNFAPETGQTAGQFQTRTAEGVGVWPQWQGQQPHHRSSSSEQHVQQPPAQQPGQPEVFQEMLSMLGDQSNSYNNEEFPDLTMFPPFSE

B1: decoy 943 (dsDNA)
DNA 1: CCAGCGTACTTGCCTCAGG
DNA 2: CCTGAGGCAAGTACGCTGG
For B1, the binding signal stood at 2.83 ratio.

B2: decoy 899 (dsDNA)
DNA 1: CGAGCGTACGTGCCTCAGG
DNA 2: CCTGAGGCACGTACGCTCG
Consider B2, for which the binding signal came to 1.34 ratio.

B3: decoy 801/802 (dsDNA)
DNA 1: GCCCTACGTGCTGTCTCA
DNA 2: TGAGACAGCACGTAGGGC
For B3, the binding signal was 4 ratio.

B4: decoy 929 (dsDNA)
DNA 1: CCAGCGTGCGTGCCTCAGG
DNA 2: CCTGAGGCACGCACGCTGG
B4 had a binding signal of 2.35 ratio.

B5: decoy 931 (dsDNA)
DNA 1: CCAGCGTCCGTGCCTCAGG
DNA 2: CCTGAGGCACGGACGCTGG
In turn, B5 gave a binding signal of 3.44 ratio.

B6: decoy 855/856 (dsDNA)
DNA 1: GTGTGTACGTGCAGGAAA
DNA 2: TTTCCTGCACGTACACAC
As to B6, the binding signal amounted to 1.07 ratio.

B7: decoy 953 (dsDNA)
DNA 1: CCAGCGTACGTACCTCAGG
DNA 2: CCTGAGGTACGTACGCTGG
With B7, the binding signal worked out at 2.67 ratio.

B8: decoy 951 (dsDNA)
DNA 1: CCAGCGTACGTCCCTCAGG
DNA 2: CCTGAGGGACGTACGCTGG
With B8, the binding signal was 2.91 ratio.

B9: decoy 941 (dsDNA)
DNA 1: CCAGCGTACCTGCCTCAGG
DNA 2: CCTGAGGCAGGTACGCTGG
With B9, the binding signal came out at 3.45 ratio.

B10: decoy 959 (dsDNA)
DNA 1: CCAGCGAACGTGCCTCAGG
DNA 2: CCTGAGGCACGTTCGCTGG
In turn, B10 registered a binding signal of 2.07 ratio.

B11: decoy 963 (dsDNA)
DNA 1: CCAGCCTACGTGCCTCAGG
DNA 2: CCTGAGGCACGTAGGCTGG
The molecule B11 had a binding signal of 1.17 ratio.

B12: decoy 859/860 (dsDNA)
DNA 1: ACCGTACGTGCTGATC
DNA 2: GATCAGCACGTACGGT
As to B12, the binding signal stood at 2.37 ratio.

B13: decoy 829/830 (dsDNA)
DNA 1: AGGAGACGTGCTGCCT
DNA 2: AGGCAGCACGTCTCCT
B13 returned a binding signal of 5.12 ratio.

B14: decoy 927 (dsDNA)
DNA 1: CCAGCGTTCGTGCCTCAGG
DNA 2: CCTGAGGCACGAACGCTGG
B14 came in with a binding signal of 3.16 ratio.

B15: decoy 807/808 (dsDNA)
DNA 1: TCTGTACGTGACCACACTCACCTC
DNA 2: GAGGTGAGTGTGGTCACGTACAGA
B15 showed a binding signal of 2.76 ratio.

B16: decoy 989 (dsDNA)
DNA 1: CCAGCGTACGTGCTTCAGG
DNA 2: CCTGAAGCACGTACGCTGG
B16 registered a binding signal of 1.21 ratio.

B17: decoy 977 (dsDNA)
DNA 1: CCAACGTACGTGCCTCAGG
DNA 2: CCTGAGGCACGTACGTTGG
B17 came in with a binding signal of 1.43 ratio.

B18: decoy 993 (dsDNA)
DNA 1: CCAGCGTACGTGCCACAGG
DNA 2: CCTGTGGCACGTACGCTGG
In the case of B18, the binding signal stood at 0.93 ratio.

B19: decoy 805/806 (dsDNA)
DNA 1: CCCCCTCGGACGTGACTCGGACCAC
DNA 2: GTGGTCCGAGTCACGTCCGAGGGGG
For the molecule B19, the binding signal came to 1.13 ratio.

B20: decoy 893 (dsDNA)
DNA 1: CACGAGCGTACGTGCCTCAGG
DNA 2: CCTGAGGCACGTACGCTCGTG
B20: the binding signal amounted to 0.94 ratio.

B21: decoy 815/816 (dsDNA)
DNA 1: GTGAGACGTGCGGCTTCCGTTTG
DNA 2: CAAACGGAAGCCGCACGTCTCAC
Consider B21, for which the binding signal was 4.43 ratio.

B22: decoy 813/814 (dsDNA)
DNA 1: GCCCTACGTGCTGTCTCACACAGC
DNA 2: GCTGTGTGAGACAGCACGTAGGGC
For B22, the binding signal came out at 4.6 ratio.

B23: decoy 833/834 (dsDNA)
DNA 1: TCCAATGCGTGCAGTACT
DNA 2: AGTACTGCACGCATTGGA
Regarding B23, the binding signal turned out to be 3.05 ratio.

B24: decoy 995 (dsDNA)
DNA 1: CCAGCGTACGTGCCGCAGG
DNA 2: CCTGCGGCACGTACGCTGG
Consider B24, for which the binding signal stood at 0.92 ratio.

B25: decoy 835/836 (dsDNA)
DNA 1: GGCCAGACGTGCCACCGG
DNA 2: CCGGTGGCACGTCTGGCC
Take B25: the binding signal came to 2.91 ratio.

B26: decoy 961 (dsDNA)
DNA 1: CCAGCGGACGTGCCTCAGG
DNA 2: CCTGAGGCACGTCCGCTGG
Turning to B26, the binding signal was 1.65 ratio.

B27: decoy 955 (dsDNA)
DNA 1: CCAGCGTACGTTCCTCAGG
DNA 2: CCTGAGGAACGTACGCTGG
In turn, B27 showed a binding signal of 2.4 ratio.

B28: decoy 957 (dsDNA)
DNA 1: CCAGCGCACGTGCCTCAGG
DNA 2: CCTGAGGCACGTGCGCTGG
For the molecule B28, the binding signal is 1.41 ratio.

B29: decoy 867/868 (dsDNA)
DNA 1: TCCGTACGTGCTGCAC
DNA 2: GTGCAGCACGTACGGA
B29: the binding signal was found to be 2.63 ratio.

B30: decoy 987 (dsDNA)
DNA 1: CCAGCGTACGTGCGTCAGG
DNA 2: CCTGACGCACGTACGCTGG
B30 had a binding signal of 1.16 ratio.

B31: decoy 975 (dsDNA)
DNA 1: CCACCGTACGTGCCTCAGG
DNA 2: CCTGAGGCACGTACGGTGG
B31 came in with a binding signal of 1.63 ratio.

B32: decoy 871/872 (dsDNA)
DNA 1: ACCGTACGTGCTGCCA
DNA 2: TGGCAGCACGTACGGT
For B32, the binding signal was 2.21 ratio.

B33: decoy 949 (dsDNA)
DNA 1: CCAGCGTACGGGCCTCAGG
DNA 2: CCTGAGGCCCGTACGCTGG
In turn, B33 returned a binding signal of 2.73 ratio.

B34: decoy 979 (dsDNA)
DNA 1: CCATCGTACGTGCCTCAGG
DNA 2: CCTGAGGCACGTACGATGG
In the case of B34, the binding signal came out at 1.41 ratio.

B35: decoy 967 (dsDNA)
DNA 1: CCAGCATACGTGCCTCAGG
DNA 2: CCTGAGGCACGTATGCTGG
B35 returned a binding signal of 1.53 ratio.

B36: decoy 947 (dsDNA)
DNA 1: CCAGCGTACGCGCCTCAGG
DNA 2: CCTGAGGCGCGTACGCTGG
Regarding B36, the binding signal amounted to 2.94 ratio.

B37: decoy 965 (dsDNA)
DNA 1: CCAGCTTACGTGCCTCAGG
DNA 2: CCTGAGGCACGTAAGCTGG
For the molecule B37, the binding signal was 1.61 ratio.

B38: decoy 847/848 (dsDNA)
DNA 1: GGAACAACGTGGAATTAG
DNA 2: CTAATTCCACGTTGTTCC
Take B38: the binding signal came to 3.02 ratio.

B39: decoy 831/832 (dsDNA)
DNA 1: TCCAATACGTGCAGTACT
DNA 2: AGTACTGCACGTATTGGA
In turn, B39 showed a binding signal of 3.36 ratio.

B40: decoy 939 (dsDNA)
DNA 1: CCAGCGTACATGCCTCAGG
DNA 2: CCTGAGGCATGTACGCTGG
B40: the binding signal was determined as 2.93 ratio.

B41: decoy 821/822 (dsDNA)
DNA 1: CGCGAGCGTACGTGCCTCAGG
DNA 2: CCTGAGGCACGTACGCTCGCG
B41: the binding signal worked out at 1.33 ratio.

B42: decoy 873/874 (dsDNA)
DNA 1: TCCGTACGTGCTGCGT
DNA 2: ACGCAGCACGTACGGA
B42: the binding signal was 2.33 ratio.

B43: decoy 837/838 (dsDNA)
DNA 1: AGGCAACGTGCAGCCG
DNA 2: CGGCTGCACGTTGCCT
Take B43: the binding signal was found to be 3.74 ratio.

B44: decoy 945 (dsDNA)
DNA 1: CCAGCGTACGAGCCTCAGG
DNA 2: CCTGAGGCTCGTACGCTGG
B44 came in with a binding signal of 3.14 ratio.

B45: decoy 905 (dsDNA)
DNA 1: GATCGCCCTACGTGCTGTCTCAGATC
DNA 2: GATCTGAGACAGCACGTAGGGCGATC
With B45, the binding signal was determined as 1.54 ratio.

B46: decoy 911 (dsDNA)
DNA 1: CACAGCGTACGTGCTGTCTCA
DNA 2: TGAGACAGCACGTACGCTGTG
In turn, B46 showed a binding signal of 1.16 ratio.

B47: decoy 877/878 (dsDNA)
DNA 1: ACCGTACGTGCTGCTA
DNA 2: TAGCAGCACGTACGGT
In the case of B47, the binding signal amounted to 2.23 ratio.
